B4: Protein GA1 (designed binder)
chain: TPAVTTYKLVINGRTLSGYTTTTAVDAATAEKVFKQYAYVHEVDGEWTYDDATKTFTVTEKPEKL
notes: also called pGA1; PGA1

Test [1] addresses B4. The test is described as follows: SPR, Fab Lc variant as analyte on His-tag-immobilized GA1. In general terms: Surface plasmon resonance follows binding to a sensor surface in real time, without labels.
Test [2] has as its target T1, C-terminal domain of the Zaire strain of Ebola virus nucleoprotein (EBOV NP^CT) (Ebola virus, Zaire strain (EBOV), UniProt P18272 641-739).
T1 construct: also called EBOV NT^CT; NP^CT EBOV Zaire
T1 sequence: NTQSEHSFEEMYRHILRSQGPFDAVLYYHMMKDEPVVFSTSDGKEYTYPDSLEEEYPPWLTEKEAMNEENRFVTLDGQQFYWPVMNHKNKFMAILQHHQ
The test is described as follows: SPR, Fab as analyte on His-tag-immobilized antigen.

Test [3] addresses T2, Fab^S (Herceptin Fab scaffold variant with Lc E123S; Lc aa 123-127 SQLKS). Nature of the test: SPR (preliminary results), Protein G variant against Fab scaffold.
The target of test [4] is T2, Fab^S (Herceptin Fab scaffold variant …). The test is described as follows: SPR.
For test [5], the target named is T3, Fab^H (Herceptin Fab scaffold with wt human kappa Lc; Lc aa 123-127 EQLKS).
T3 construct: also called Hkappa
Nature of the test: SPR (preliminary results), Protein G variant against Fab scaffold.

Test [6] addresses T4, “Λ” Fab scaffold (4D5 scaffold with SEELQANK in the Lc region).
T4 construct: also called “Lambda” Fab scaffold
The description is as above.

T4 sequence (light, as listed by the source): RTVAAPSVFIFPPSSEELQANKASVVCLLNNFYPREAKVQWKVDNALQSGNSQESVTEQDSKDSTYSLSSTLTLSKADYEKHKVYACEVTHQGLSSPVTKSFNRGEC

B1: Fab Lc scaffold variant ΔΔLKT (mutated; printed in Table 1 as AALKS) (Fab, V domains shown)
VH: EVQLVESGGGLVQPGGSLRLSCAASGFNISYSSIHWVRQAPGKGLEWVASIYSYSGYTSYADSVKGRFTISADTSKNTAYLQMNSLRAEDTAVYYCARSYWYHVGSWHYTGMDYWGQGTLVTVSS
VL: DIQMTQSPSSLSASVGDRVTITCRASQSVSSAVAWYQQKPGKAPKLLIYSASSLYSGVPSRFSGSRSGTDFTLTISSLQPEDFATYYCQQSSSSLITFGQGTKVEIKR
In turn, B1 registered a Kd in test [1] of 12 nM.

B2: MJ20 RESTV LRT-Fab (Fab, V domains shown)
VH: EVQLVESGGGLVQPGGSLRLSCAASGFNISYSSIHWVRQAPGKGLEWVASIYSYSGYTSYADSVKGRFTISADTSKNTAYLQMNSLRAEDTAVYYCARSYWYHVGSWHYTGMDYWGQGTLVTVSS
VL: DIQMTQSPSSLSASVGDRVTITCRASQSVSSAVAWYQQKPGKAPKLLIYSASSLYSGVPSRFSGSRSGTDFTLTISSLQPEDFATYYCQQSSSSLITFGQGTKVEIKR
notes: also called Fab MJ20
B2 returned a Kd in test [2] of 3.4 nM.

B3: MJ6 EBOV LRT-Fab (Fab, V domains shown)
VH: EVQLVESGGGLVQPGGSLRLSCAASGFNVYYYYIHWVRQAPGKGLEWVASISPYYGYTSYADSVKGRFTISADTSKNTAYLQMNSLRAEDTAVYYCARWSYDQSMSYKSGMDYWGQGTLVTVSS
VL: DIQMTQSPSSLSASVGDRVTITCRASQSVSSAVAWYQQKPGKAPKLLIYSASSLYSGVPSRFSGSRSGTDFTLTISSLQPEDFATYYCQQYSYSLVTFGQGTKVEIKR
notes: also called Fab MJ6
On to B3, for which, in test [2], the Kd was 0.7 nM and the off-rate (koff) was 0.001 s⁻¹.

Take B4: the Kd was 100 nM in test [3] and around 50 nM in test [4].

B5: Protein G D (designed binder)
chain: TPAVTTYKLVINGRTLSGYTTTTAVDAATAEKVFKQIDMVSSVDGEWTYDDATKTFTVTEKPEKL
notes: also called pGD; D 38IDMVSS43
Turning to B5, the Kd in test [3] turned out to be 80 nM.

B6: Protein G F (designed binder)
chain: TPAVTTYKLVINGRTLSGYTTTTAVDAATAEKVFKQYAFGNGVDGEWTYDDATKTFTVTEKPEKL
notes: also called pGF; F 38YAFGNG43
Regarding B6, the figures for the Kd in test [3], in test [5] and in test [6] were 60 nM, 3 nM and 50 nM, respectively.

Usually Kd stands for a measure of binding affinity in units of concentration. A low value points to higher affinity. For orientation: koff means a measure of how fast the partners let go of each other. The low end stands for slow dissociation, the high end for fast dissociation.

Source of the values: patent publication US20240043534A1 (UNIVERSITY OF CHICAGO, published 2024).
